Experimental data as given in the supplement of paper PMC10567573.

B1: ETS1 (parent)
chain: YVRDRADLNKDKPVIPAAALAGYT
B2: CLCN6 (parent)
chain: MAGCRGSLCCCCRWCCCCGERETR

Variants of: B1
Assay: protein stability index of a GFP-peptide fusion (GPS, HEK-293T) (PSI 1-6); higher = more stable
Details: c terminus: a fixed tail appended
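Further: lentivirally expressed fusions sorted by FACS into six bins by GFP to DsRed ratio, PSI derived from sequencing read proportions per bin multiplied by bin number.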

Protein stability index: each site, then its substitutions
Y23: I 2.53, R 1.89, C 2.51, P 1.47, E 2.3, V 2.13, H 2.18, K 1.46, D 1.91, W 2.5
V2: D 4.34, N 3.77, I 2.17, G 3.53, W 3.19, C 2.25, R 3.79, T 3.5
R5: N 1.94, Y 2.7, W 2.48, A 2.12, L 1.82, S 2.23, I 3.08, Q 1.57, P 1.72, D 2.14, K 2.11
K12: H 2.29, Q 2.48, L 2.47, Y 1.94, S 2.48, C 2.13, T 2.02, D 2.04, G 2.17, F 2.1, W 2.43
P13: E 1.74, C 1.8, S 1.62, Y 2.59, T 2.4, N 2.46, Q 1.63
A19: Q 2.84, L 1.55, C 1.86, G 2.62, I 2.14, Y 2.13, H 1.75, R 2.53, T 2.17
R3: I 1.66, P 2.43, D 2.88, T 2.3, E 2.76, Q 2.08, S 2.12, C 1.75
L20: M 2.45, C 2.48, P 2.41, E 1.81, K 1.48, D 1.55, R 2.35, H 1.89, N 1.94, Q 2.79, V 2.02, S 1.82
A6: L 1.55, C 2, T 1.88, S 2.05, W 2.71, N 2.08, G 2.49, I 2.76, H 1.87, P 1.61, Y 2.28
D4: Y 3.23, W 1.83, R 2.1, L 2.03, A 2.68, T 3.02
Y1: K 4.18, G 4.02, W 3.77, C 3.31, F 2.22, A 4.46, H 3.7, V 3.65, P 3.92, I 3.73
P16: F 3.22, W 2.19, G 1.93, I 2.23, N 2.33, D 2.54
L8: F 2.72, K 2.19, W 2.23, E 2.11, H 2.29, R 1.88, S 1.72, D 1.67, T 2.44, Y 2.9
D7: G 2.56, H 2.91, C 2.17, P 3.16, S 1.72, F 2.17, N 2.98, L 2.51
V14: Y 1.8, E 1.97, S 2.84, M 2.75, R 2.67, W 2.4, G 2.18, A 1.73
K10: F 3.25, L 2.62, V 1.55, H 2.18, Q 2.55, T 2.67, C 2.75, R 2.24
A21: S 2.53, D 2.4, W 2.75, E 2.1, H 2.06, Q 1.95, V 2.38, P 1.65
T24: H 3.26, L 2.7, M 2.67, E 2.08, C 2.47, Q 2.69, F 1.84, D 1.45
I15: A 2.8, N 3.26, G 2.09, T 1.91, M 2.7, K 2.26, Q 2.57, S 2.36, D 1.93, H 2.29
G22: D 2.53, T 2.05, H 1.63, N 2.15, K 2.18, F 2.21, W 2.55, I 2.29, V 2.74, R 1.69, S 1.66
A18: I 3.08, L 2.88, K 2.63, N 2.22, W 2.53, C 2.33
N9: V 2.57, L 2.81, Y 2.84, Q 1.66, P 2.29, F 2.21, K 2.31, D 1.59, R 3.34
A17: M 1.38, T 2.11, D 1.41, L 2.04, N 1.64, Y 2.86
D11: T 2.16, P 3.65, R 2.17, H 3.35, I 2.08, S 2.9, E 2.5

Variants of: B2
Assay: as above
Details: c terminus: a fixed tail appended

Protein stability index: each site, then its substitutions
M1: A 1.91, C 1.98, D 1.78, E 1.22, G 1.86, H 2.14, K 2.14, L 1.39, N 1.56, P 2.12, Q 1.65, S 1.56
A2: D 2, E 2.77, F 2.2, G 2.1, H 2.81, I 2.07, K 2.68, L 1.33, M 1.73, P 1.37, Q 1.74, V 1.46, Y 1.98
G3: D 1.8, E 2.09, F 2.11, I 1.44, K 1.52, M 1.99, N 1.5, P 1.27, Q 1.31, R 2.1, V 1.15, W 1.9, Y 2.37
C4: A 1.84, D 2.24, E 2.58, F 2.4, G 1.45, H 2.07, I 1.61, K 2.35, L 2.74, R 2.33, S 1.69, W 1.79, Y 2.12
R5: A 1.98, C 2.33, D 1.38, E 1.34, F 2.41, G 1.49, I 1.92, K 3.21, M 1.38, P 1.29, Q 2.33, T 1.44, W 1.98, Y 3.45
G6: A 1.83, D 2.36, E 2.38, F 1.92, H 1.86, I 2.06, L 1.32, M 1.41, N 1.72, P 1.58, Q 2.28, R 2.52, S 1.82, T 1.59, V 1.37, W 2.54, Y 1.89
S7: A 1.5, C 2.52, F 1.91, H 1.89, I 2.55, K 1.5, L 1.9, N 1.09, P 2.19, Q 1.49, R 1.37, T 1.77, W 2.47, Y 1.43
L8: C 1.54, D 1.17, E 1.83, F 1.1, G 2.1, I 1.32, K 1.53, N 1.42, Q 1.29, R 2.16, S 1.22, T 1.42, V 2.21
C9: A 3.15, D 1.18, E 1.45, F 1.77, G 2.23, H 3.07, I 1.76, K 1.77, L 1.64, M 2.65, N 1.67, P 1.69, Q 2.64, R 1.28, T 2.16, W 2.65, Y 1.69
